Data on 14 molecules can be found in patent publication US20190233512A1 (SUTRO BIOPHARMA, published 2019).

Substitutions are numbered along the chain they refer to.

Sequences and labels used below:
B1: SRP1848-D04 (antibody, V domains shown)
VH: EVQLVESGGGLVQPGGSLRLSCAASGFNISHYSIHWVRQAPGKGLEWVGEIYPRDGITDYADSVKGRFTISADTSKNTAYLQMNSLSAEDTAVYYCARGYWFWRSGYGYYLDYWGQGTLVTVSS
VL: not shown
notes: VH/VL only; Fc-bearing IgG format with trastuzumab LC, HIS/FLAG-tagged, cell-free expressed; constant regions not tied; also called Antibody 26
B2: SRP1848-B07 (antibody, V domains shown)
VH: EVQLVESGGGLVQPGGSLRLSCAASGFNISRFYIHWVRQAPGKGLEWVGGISPYDGFTDYADSVKGRFTISADTSKNTAYLQMNSLRAEDTAVYYCARGSWSWPAGYGYYQDYWGQGTLVTVSS
VL: not shown
notes: VH/VL only; Fc-bearing IgG format with trastuzumab LC, HIS/FLAG-tagged, cell-free expressed; constant regions not tied; also called Antibody 14
B3: SRP1848-B01 (antibody, V domains shown)
VH: B1 VH with S30R, H31N, R54V, S87R, Y100F, F102S, R104P, G108S, Y110F
VL: not shown
notes: VH/VL only; Fc-bearing IgG format with trastuzumab LC, HIS/FLAG-tagged, cell-free expressed; constant regions not tied; also called Antibody 9
B4: SRP1848-B05 (antibody, V domains shown)
VH: B2 VH with R31N, F32Y, Y54I, F57Y, V64M, N84S, S102F, P104Q, A105S, Q111L
VL: not shown
notes: VH/VL only; Fc-bearing IgG format with trastuzumab LC, HIS/FLAG-tagged, cell-free expressed; constant regions not tied; also called Antibody 12
B5: SRP1848-B03 (antibody, V domains shown)
VH: B2 VH with R31M, F32K, S52T, Y54I, F57M, A105S, G108S, Q111L
VL: not shown
notes: VH/VL only; Fc-bearing IgG format with trastuzumab LC, HIS/FLAG-tagged, cell-free expressed; constant regions not tied; also called Antibody 10
B6: SRP1848-A10 (antibody, V domains shown)
VH: EVQLVESGGGLVQPGGSLRLSCAASGFNIRKYSIHWARQAPGKGLEWVGDIFPIDDITDYADSVKGRFTISADTSKNTAYLQMNSLRAEDTAVYYCARGSWSWPSGHSYYLDYWGQGTLVTVSS
VL: not shown
notes: VH/VL only; Fc-bearing IgG format with trastuzumab LC, HIS/FLAG-tagged, cell-free expressed; constant regions not tied; also called Antibody 8
B7: SRP1848-F06 (antibody, V domains shown)
VH: B2 VH with R31L, F32S, Y54I, F57N, S100F, S102A, P104R, A105S, Q111L
VL: not shown
notes: VH/VL only; Fc-bearing IgG format with trastuzumab LC, HIS/FLAG-tagged, cell-free expressed; constant regions not tied; also called Antibody 41
B8: SRP1848-B10 (antibody, V domains shown)
VH: B1 VH with I29T, S30T, H31T, Y32K, S87R, Y100G, F102H, G108S
VL: not shown
notes: VH/VL only; Fc-bearing IgG format with trastuzumab LC, HIS/FLAG-tagged, cell-free expressed; constant regions not tied; also called Antibody 16
B9: SRP1848-B04 (antibody, V domains shown)
VH: B1 VH with G26S, H31N, Y32H, R54V, S87R, Y100R, W101Y, F102S, S105A, G108S
VL: not shown
notes: VH/VL only; Fc-bearing IgG format with trastuzumab LC, HIS/FLAG-tagged, cell-free expressed; constant regions not tied; also called Antibody 11
B10: SRP1848-B11 (antibody, V domains shown)
VH: B2 VH with S30G, R31N, F32N, Y33S, G50D, Y54I, P104R, Q111L
VL: not shown
notes: VH/VL only; Fc-bearing IgG format with trastuzumab LC, HIS/FLAG-tagged, cell-free expressed; constant regions not tied; also called Antibody 17
B11: SRP1848-B06 (antibody, V domains shown)
VH: B2 VH with R31N, F32Y, S52T, Y54I, F57Y, S100F, A105S
VL: not shown
notes: VH/VL only; Fc-bearing IgG format with trastuzumab LC, HIS/FLAG-tagged, cell-free expressed; constant regions not tied; also called Antibody 13
B12: SRP1848-B09 (antibody, V domains shown)
VH: EVQLVESGGGLVQPGGSLRLSCAAGGFNITNYYIHWVRQAPGKGLEWVGGITPVDGYTDYADRVKGRFTISADTSKNTAYLQMNSLRAEDTAVYYCARGAWSWRSGYGYYMDYWGQGTLVTVSS
VL: not shown
notes: VH/VL only; Fc-bearing IgG format with trastuzumab LC, HIS/FLAG-tagged, cell-free expressed; constant regions not tied; also called Antibody 15
B13: SRP1848-A08 (antibody, V domains shown)
VH: B1 VH with F27S, S30R, H31K, Y32H, E50S, R54N, I57T, S87R, Y100S, S105A
VL: not shown
notes: VH/VL only; Fc-bearing IgG format with trastuzumab LC, HIS/FLAG-tagged, cell-free expressed; constant regions not tied; also called Antibody 6
B14: SRP1848-C01 (antibody, V domains shown)
VH: EVQLVESGGGLVQPGGSLRLSCAASGFNIGNSYIHWVRQAPGKGLEWVGGVTPNDGYTDYADSVKGRFTISADTSKNTTYLQMNSLRAEDTAVYYCARGSWFWRAGYGYYLDYWGQGALVTVSS
VL: not shown
notes: VH/VL only; Fc-bearing IgG format with trastuzumab LC, HIS/FLAG-tagged, cell-free expressed; constant regions not tied; also called Antibody 18

In the first assay the target is T1, Cynomolgus folate receptor alpha (cynomolgus monkey, UniProt P15328 25-234 (human entry)).
T1 construct: Stably expressed on CHO cells (CHO-cFOLR1); also called cynomolgus FOLR1; CHO-cFOLR1
T1 sequence (P15328 other isoform, or with tags, fused parts or gaps limits assumed): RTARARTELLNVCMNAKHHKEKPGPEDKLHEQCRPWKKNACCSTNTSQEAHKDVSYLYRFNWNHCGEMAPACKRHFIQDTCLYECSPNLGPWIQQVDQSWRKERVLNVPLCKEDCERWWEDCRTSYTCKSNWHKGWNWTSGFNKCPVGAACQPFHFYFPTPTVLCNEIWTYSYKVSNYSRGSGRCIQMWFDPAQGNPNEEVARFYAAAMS
Briefly: FACS, CHO-cFOLR1 cells.
In the case of B1, the Bmax was determined as 25700 MFI.

Molecule B2 displayed a Bmax of 25500 MFI.

Molecule B3 registered a Bmax of 23900 MFI.

Take B4: the Bmax amounted to 21900 MFI.

In turn, B5 gave a Bmax of 17200 MFI.

Molecule B6 came in with a Bmax of 14800 MFI.

Molecule B7 came in with a Bmax of 26500 MFI.

As for B8, the Bmax stood at 21300 MFI.

The molecule B9 gave a Bmax of 27800 MFI.

Molecule B10 registered a Bmax of 22900 MFI.

For B11, the Bmax came to 26800 MFI.

Regarding B12, the Bmax was found to be 25200 MFI.

For B13, the Bmax was 26200 MFI.

B14: the Bmax came out at 25900 MFI.

For the next assay, the target named is T2, Human folate receptor alpha (hFOLR1) (human, UniProt P15328 25-234).
T2 construct: Stably expressed on CHO cells (CHO-hFOLR1) for flow cytometry; endogenous on FOLR1-positive KB and Igrov1 cells in the killing assay; also called human FOLR1; FolRα
T2 sequence (P15328 25-234 limits assumed): as the sequence (P15328 other isoform, or with tags, fused parts or gaps limits assumed) above, with T2I, R4W, K37R, R117Q, P146A, Y171H counted along it
The experiment in a line: FACS, CHO-hFOLR1 cells. As to the method:
CHO cells were transfected to stably express human (CHO-hFOLR1), cynomolgus (CHO-cFOLR1), or mouse (CHO-mFOLR1) target molecule FOLR1 on the cell surface. Parental CHO cells were used as a negative control to determine background binding levels. Parental CHO and stably transfected CHO-hFOLR1, CHO-cFOLR1, and CHO-mFOLR1 cells were cultured in Ham's F-12: high glucose DMEM (50:50) (Corning, Cellgro-Mediatech) supplemented with 10% heat-inactivated fetal bovine serum (Corning, Cellgro-Mediatech), 1% Penicillin/Streptomycin (Corning, Cellgro-Mediatech) and 2 mmol/L-glutamax (Life Technology).
A mixture of fluoresecent-labeled parental CHO cells and unlabeled CHO-hFOLRlcells were prepared as follows. Parental CHO cells were washed twice in PBS and incubated in PBS containing with 1 nM CellTrace™ Oregon Green488® (Life Technologies) at 37° C. for 30 minutes. Labeled parental CHO cells were then washed 2× with Ham's F-12 media and 2× with FACS buffer (PBS with 1% bovine serum albumin). Unlabeled CHO-hFOLR1 cells were similarly washed and prepared. Labeled parental CHO and unlabeled CHO-hFOLR1 cells were combined at 1:1 ratio and seeded at 50 μL per well (200,000 cells per well) in 96 well polypropylene plates. Cells were mixed with 50 μL of test antibodies (i.e., anti-FOLR1 variants) serially diluted in FACS buffer and incubated on ice for 60 mins. Cells were washed with FACS buffer and incubated on ice for 60 mins with 100 μL FACS buffer containing 2.5 μg/mL R-Phycoerythrin-conjugated goat anti-Human IgG (Jackson ImmunoResearch Laboratories, West Grove, Pa.). Cells were washed twice with FACS buffer, fixed in 2% paraformaldehyde in PBS (Santa Cruz Biotechnology; Dallas, Tex.) for 10 mins on ice in the dark, and analyzed using the BD LSR II Flow Cytometer (BD Biosciences; San Jose, Calif.). Data were analyzed using FlowJo® software (FlowJo, LLC; Ashland, Oreg.) to determine mean fluorescence intensities. Binding constants were calculated using the statistical software, GraphPad Prism (GraphPad Software; La Jolla, Calif.) using the nonlinear regression equation, one site-specific binding with Hill slope. Secondary antibody alone was used as a control, in addition to measuring non-specific antibody binding to CHO parental cells.
B1 registered a Bmax of 29300 MFI.

On to B2, for which the Bmax turned out to be 25600 MFI.

B3 came in with a Bmax of 26600 MFI.

B4 registered a Bmax of 24500 MFI.

The molecule B5 came in with a Bmax of 26300 MFI.

Molecule B6 gave a Bmax of 27100 MFI.

Molecule B7 gave a Bmax of 25600 MFI.

Turning to B8, the Bmax worked out at 28200 MFI.

As for B9, the Bmax was found to be 27800 MFI.

In turn, B10 gave a Bmax of 28400 MFI.

As for B11, the Bmax came to 25100 MFI.

B12 yielded a Bmax of 25200 MFI.

With B13, the Bmax was determined as 28600 MFI.

As to B14, the Bmax is 28500 MFI.

The target in another assay is T3, Murine folate receptor alpha (mouse, UniProt P35846 25-232).
T3 construct: Stably expressed on CHO cells (CHO-mFOLR1); also called mouse FOLR1; CHO-mFOLR1
T3 sequence (P35846 25-232 limits assumed): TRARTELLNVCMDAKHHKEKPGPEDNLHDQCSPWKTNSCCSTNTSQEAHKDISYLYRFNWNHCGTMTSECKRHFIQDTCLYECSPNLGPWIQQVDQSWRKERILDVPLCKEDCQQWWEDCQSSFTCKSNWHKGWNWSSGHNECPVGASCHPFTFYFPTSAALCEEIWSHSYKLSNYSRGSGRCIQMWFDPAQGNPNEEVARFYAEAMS
The experiment in a line: FACS, CHO-mFOLR1 cells.
B3 yielded a Bmax of 3400 MFI.

In turn, B5 had a Bmax of 2720 MFI.

For B6, the Bmax was 10200 MFI.

The molecule B8 came in with a Bmax of 2460 MFI.

With B9, the Bmax amounted to 2190 MFI.

B10 gave a Bmax of 1630 MFI.

B12: the Bmax came out at 1420 MFI.

B13 had a Bmax of 3200 MFI.

Turning to B14, the Bmax was 1370 MFI.
